± gives the uncertainty stated by the source.

To fix the notation:
B1: MEF2-activating motif and SAP domain-containing transcriptional regulator, residues 170 to 204; numbered along this chain, Q6ZN01 (parent)
chain: LKLEELTVSELRQQLRLRGLPVSGTKSMLLERMRG

In the series the parent is B1. The series can be described thus: abundance fitness (aPCA) (normalised: wild type 0, dead -1); higher = more abundant; growth selection in yeast, the domain comes from the species named. To be noted: Homo sapiens.
Turning to LKLEELTVSELRQQLRLRGLPVSGTKSMLLEMMRG, the abundance fitness is -0.369 ± 0.23.

Take LKLEELTVSELRQQLRLRGLPVSGTKSMLLESMRG: the abundance fitness is -0.483 ± 0.11.

As to LKLEELTVSELRQQLRLRGLPVSGTKSMLLEKMRG, the abundance fitness was -0.545 ± 0.16.

On to LKLEELTVSELRQQLRLRGLPVSGTKSMLLENMRG, for which the abundance fitness is -0.02 ± 0.19.

Regarding LKLEELTVSELRQQLRLRGLPVSGTKSMLLELMRG, the abundance fitness was -0.485 ± 0.098.

Turning to LKLEELTVSELRQQLRLRGLPVSGTKSMLLEAMRG, the abundance fitness was -0.459 ± 0.11.

In the case of LKLEELTVSELRQQLRLRGLPVSGTKSMLLEWMRG, the abundance fitness was -0.554 ± 0.074.

With LKLEELTVSELRQQLRLRGLPVSGTKSMLLETMRG, the abundance fitness came out at 0 ± 0.1.

For LKLEELTVSELRQQLRLRGLPVSGTKSMLLECMRG, the abundance fitness was -0.611 ± 0.13.

With LKLEELTVSELRQQLRLRGLPVSGTKSMLLEGMRG, the abundance fitness is -0.326 ± 0.067.

Turning to LKLEELTVSELRQQLRLRGLPVSGTKSMLLEEMRG, the abundance fitness is -0.219 ± 0.1.

On to LKLEELTVSELRQQLRLRGLPVSGTKSMLLEQMRG, for which the abundance fitness is -0.232 ± 0.1.

Take LKLEELTVSELRQQLRLRGLPVSGTKSMLLEIMRG: the abundance fitness was -0.507 ± 0.12.

Take LKLEELTVSELRQQLRLRGLPVSGTKSMLLEVMRG: the abundance fitness was -0.368 ± 0.12.

On to LKLEELTVSELRQQLRLRGLPVSGTKSMLLERSRG, for which the abundance fitness was -0.34 ± 0.065.

With LKLEELTVSELRQQLRLRGLPVSGTKSMLLERARG, the abundance fitness was -0.161 ± 0.08.

On to LKLEELTVSELRQQLRLRGLPVSGTKSMLLERERG, for which the abundance fitness is -0.146 ± 0.091.

In the case of LKLEELTVSELRQQLRLRGLPVSGTKSMLLERNRG, the abundance fitness was -0.613 ± 0.34.

With LKLEELTVSELRQQLRLRGLPVSGTKSMLLERFRG, the abundance fitness is -0.516 ± 0.091.

LKLEELTVSELRQQLRLRGLPVSGTKSMLLERTRG: the abundance fitness is -0.525 ± 0.099.

LKLEELTVSELRQQLRLRGLPVSGTKSMLLERRRG: the abundance fitness was -0.66 ± 0.084.

With LKLEELTVSELRQQLRLRGLPVSGTKSMLLERLRG, the abundance fitness was found to be 0.206 ± 0.1.

As to LKLEELTVSELRQQLRLRGLPVSGTKSMLLERQRG, the abundance fitness amounted to 0.04 ± 0.25.

As for LKLEELTVSELRQQLRLRGLPVSGTKSMLLERGRG, the abundance fitness is -0.343 ± 0.078.

Take LKLEELTVSELRQQLRLRGLPVSGTKSMLLERCRG: the abundance fitness is -0.235 ± 0.077.

On to LKLEELTVSELRQQLRLRGLPVSGTKSMLLERWRG, for which the abundance fitness was -0.538 ± 0.11.

As for LKLEELTVSELRQQLRLRGLPVSGTKSTLLERMRG, the abundance fitness was -0.081 ± 0.07.

LKLEELTVSELRQQLRLRGLPVSGTKSHLLERMRG: the abundance fitness is -0.003 ± 0.14.

As for LKLEELTVSELRQQLRLRGLPVSGTKSVLLERMRG, the abundance fitness was found to be 0.05 ± 0.057.

In the case of LKLEELTVSELRQQLRLRGLPVSGTKSQLLERMRG, the abundance fitness worked out at 0.067 ± 0.32.

On to LKLEELTVSELRQQLRLRGLPVSGTKSLLLERMRG, for which the abundance fitness was -0.106 ± 0.058.

LKLEELTVSELRQQLRLRGLPVSGTKSSLLERMRG: the abundance fitness is -0.36 ± 0.096.

In the case of LKLEELTVSELRQQLRLRGLPVSGTKSWLLERMRG, the abundance fitness is -0.839 ± 0.29.

For the variant LKLEELTVSELRQQLRLRGLPVSGTKSILLERMRG, the abundance fitness was -0.015 ± 0.098.

Regarding LKLEELTVSELRQQLRLRGLPVSGTKSFLLERMRG, the abundance fitness is -0.616 ± 0.23.

As to LKLEELTVSELRQQLRLRGLPVSGTKSCLLERMRG, the abundance fitness was -0.393 ± 0.25.

Consider LKLEELTVSELRQQLRLRGLPVSGTKSNLLERMRG, for which the abundance fitness is -0.402 ± 0.19.

As for LKLEELTVSELRQQLRLRGLPVSGTKSALLERMRG, the abundance fitness is 0.022 ± 0.095.

For the variant LKLEELTVSELRQQLRLRGLPVSGTKSGLLERMRG, the abundance fitness is -0.512 ± 0.072.

On to LKLEELTVSELRQQLRLRGLPVSGTKSPLLERMRG, for which the abundance fitness is -0.973 ± 0.38.

On to LKLEELTVSELRQQLRLRGLPVSGTKSMLLERMDG, for which the abundance fitness is -0.396 ± 0.2.

On to LKLEELTVSELRQQLRLRGLPVSGTKSMLLERMQG, for which the abundance fitness was 0.156 ± 0.068.

In the case of LKLEELTVSELRQQLRLRGLPVSGTKSMLLERMNG, the abundance fitness came to 0.21 ± 0.12.

In the case of LKLEELTVSELRQQLRLRGLPVSGTKSMLLERMAG, the abundance fitness is -0.118 ± 0.068.

For the variant LKLEELTVSELRQQLRLRGLPVSGTKSMLLERMIG, the abundance fitness was -0.323 ± 0.29.

Take LKLEELTVSELRQQLRLRGLPVSGTKSMLLERMEG: the abundance fitness was -0.089 ± 0.093.

Turning to LKLEELTVSELRQQLRLRGLPVSGTKSMLLERMTG, the abundance fitness is -0.045 ± 0.079.

Consider LKLEELTVSELRQQLRLRGLPVSGTKSMLLERMMG, for which the abundance fitness is -0.416 ± 0.49.

Turning to LKLEELTVSELRQQLRLRGLPVSGTKSMLLERMSG, the abundance fitness was -0.064 ± 0.089.

As for LKLEELTVSELRQQLRLRGLPVSGTKSMLLERMCG, the abundance fitness is -0.021 ± 0.21.

As for LKLEELTVSELRQQLRLRGLPVSGTKSMLLERMLG, the abundance fitness is -0.068 ± 0.15.

Take LKLEELTVSELRQQLRLRGLPVSGTKSMLLERMVG: the abundance fitness is -0.244 ± 0.1.

LKLEELTVSELRQQLRLRGLPVSGTKSMLLERMFG: the abundance fitness is -0.516 ± 0.099.

Consider LKLEELTVSELRQQLRLRGLPVSGTKAMLLERMRG, for which the abundance fitness was -0.1 ± 0.064.

As for LKLEELTVSELRQQLRLRGLPVSGTKFMLLERMRG, the abundance fitness was -1.15 ± 0.27.

LKLEELTVSELRQQLRLRGLPVSGTKWMLLERMRG: the abundance fitness is -0.23 ± 0.06.

For the variant LKLEELTVSELRQQLRLRGLPVSGTKHMLLERMRG, the abundance fitness is -0.246 ± 0.091.

Take LKLEELTVSELRQQLRLRGLPVSGTKTMLLERMRG: the abundance fitness was -0.108 ± 0.078.

As to LKLEELTVSELRQQLRLRGLPVSGTKQMLLERMRG, the abundance fitness worked out at 0.38 ± 0.41.

As to LKLEELTVSELRQQLRLRGLPVSGTKYMLLERMRG, the abundance fitness is -0.725 ± 0.35.

Take LKLEELTVSELRQQLRLRGLPVSGTKVMLLERMRG: the abundance fitness is -0.349 ± 0.084.

In the case of LKLEELTVSELRQQLRLRGLPVSGTKLMLLERMRG, the abundance fitness was -0.281 ± 0.063.

On to LKLEELTVSELRQQLRLRGLPVSGTKGMLLERMRG, for which the abundance fitness is -0.108 ± 0.066.

As to LKLEELTVSELRQQLRLRGLPVSGTKRMLLERMRG, the abundance fitness is -0.154 ± 0.064.

Regarding LKLEELTVSELRQQLRLRGLPVSGTKPMLLERMRG, the abundance fitness is -0.19 ± 0.12.

On to LKLEELTVSELRQQLRLRGLPVSGTKEMLLERMRG, for which the abundance fitness is 0.081 ± 0.05.

With LKLEELTVSELRQQLRLRGLPVSGTKCMLLERMRG, the abundance fitness is -0.455 ± 0.12.

For the variant LKLEELTVSELRQQLRLRGLPVSGTKDMLLERMRG, the abundance fitness worked out at 0.069 ± 0.065.

For LKLEELTVSELRQQLRLRGLPVSGTKSMLGERMRG, the abundance fitness was -0.493 ± 0.09.

Turning to LKLEELTVSELRQQLRLRGLPVSGTKSMLRERMRG, the abundance fitness is -0.283 ± 0.07.

Source of the values: the Human Domainome abundance scans (Beltran et al. 2025).
